The source of these data is PMC7598476.

The target of assay [1] is trypsinized trimeric hMPV B2 F (human metapneumovirus (subgroup B2)). The assay is described as follows: SEC. In general terms: SEC sorts molecules by how far they enter the pores of the column.
Assay [2] concerns the target biotinylated monomeric hMPV B2 F protein (human metapneumovirus (subgroup B2)). In words: BLI. A general note: Biolayer interferometry detects binding as a change in optical thickness at a sensor tip.

One may read the stoichiometry N as a count of units in the complex or per binding partner. The substance “trypsinized trimeric hMPV B2 F (natural protein)” gave a stoichiometry N in assay [1] of 3.
Usually Kd stands for the concentration at which binding is half-saturated. With 101F Fab, the Kd in assay [2] was 0.43 µM.
